This passage reports percent of Aβ40 contained in the fibrils results from publication PMC5707514.

The experiment addresses Aβ(M1-42) (UniProt P05067). Description: fibrils trapped on a 0.2 μm filter, tryptic digest and MALDI-TOF MS; 1:1 mixture of ^15N-Aβ42 and ^14N-Aβ40 monomers, 3 μM total, 5 μM ThT, 37 °C; samples taken at the first and second ThT plateau, fibrils washed with Milli-Q water.

Sequence of Aβ(M1-42) (P05067 671-713): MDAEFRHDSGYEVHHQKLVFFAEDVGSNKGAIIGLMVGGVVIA

On to “Aβ(M1-40) (from UniProt P05067 672-711) (peptide)”, for which the percent of Aβ40 contained in the fibrils at the first plateau was less than 13%.
